Measurements published in patent US20200095301A1 (published 2020).
Each block holds one molecule with its values, some of them ahead of it.

Experiments:
[1] = molecular target: human IL-13Rα1 ectodomain, biotinylated (human) (UniProt P78552); assay: SPR; kinetic; conditions: ligand
[2] = molecular target: human IL-13Rα1 ectodomain, biotinylated (human) (UniProt P78552); assay: SPR; equilibrium; conditions: ligand
[3] = molecular target: T1, human IL-13Rα2, biotinylated (human, UniProt Q14627 27-343, biotinylated (site not stated)); assay: SPR; kinetic
T1 chain: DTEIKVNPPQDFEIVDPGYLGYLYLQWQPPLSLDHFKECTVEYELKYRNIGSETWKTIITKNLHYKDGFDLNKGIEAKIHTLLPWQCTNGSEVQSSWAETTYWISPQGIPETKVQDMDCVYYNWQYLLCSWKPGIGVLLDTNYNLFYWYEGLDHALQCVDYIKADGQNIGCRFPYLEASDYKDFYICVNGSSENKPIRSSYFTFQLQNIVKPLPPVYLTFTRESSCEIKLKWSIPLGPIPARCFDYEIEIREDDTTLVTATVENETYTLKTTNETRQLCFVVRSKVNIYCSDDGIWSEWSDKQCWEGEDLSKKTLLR

human IL-13Rα1 ectodomain, biotinylated (human), sequence (P78552 other isoform, or with tags, fused parts or gaps): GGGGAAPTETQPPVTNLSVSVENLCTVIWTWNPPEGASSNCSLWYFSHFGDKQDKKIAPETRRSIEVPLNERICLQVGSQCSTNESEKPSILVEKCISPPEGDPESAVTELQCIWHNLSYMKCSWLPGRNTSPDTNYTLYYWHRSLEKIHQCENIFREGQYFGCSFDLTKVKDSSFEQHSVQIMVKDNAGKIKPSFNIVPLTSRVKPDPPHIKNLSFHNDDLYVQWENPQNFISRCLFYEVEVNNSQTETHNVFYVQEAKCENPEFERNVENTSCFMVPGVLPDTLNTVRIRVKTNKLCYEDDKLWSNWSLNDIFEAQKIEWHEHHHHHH

Kd [1]: 18 nM
Molecule: IL-13 variant B4 [R11S, V18I, R86K, D87G, T88S, K89M, L101Y, K104R, K105T]

Kd [2]: 4100 nM
Molecule: IL-13 superkine D7 [L10A, V18F, R86K, D87K, K89R, L101I, K104R, R108K]

Kd [3]: 0.003 nM
B1: IL-13 superkine D7 [L10A, V18F, R86K, D87K, K89R, L101I, K104R, R108K] (ligand)
chain: PGPVPPSTAARELIEELFNITQNQKAPLCNGSMVWSINLTAGMYCAALESLINVSGCSAIEKTQRMLSGFCPHKVSAGQFSSLHVKKTRIEVAQFVKDLLIHLRKLFKEGQFNHHHHHH
